{"source": "paper PMC8771847", "origin": "cited, not measured here", "molecular_target": "Piezo1 (Mus musculus) (UniProt E2JF22)", "sequence (E2JF22 whole entry)": "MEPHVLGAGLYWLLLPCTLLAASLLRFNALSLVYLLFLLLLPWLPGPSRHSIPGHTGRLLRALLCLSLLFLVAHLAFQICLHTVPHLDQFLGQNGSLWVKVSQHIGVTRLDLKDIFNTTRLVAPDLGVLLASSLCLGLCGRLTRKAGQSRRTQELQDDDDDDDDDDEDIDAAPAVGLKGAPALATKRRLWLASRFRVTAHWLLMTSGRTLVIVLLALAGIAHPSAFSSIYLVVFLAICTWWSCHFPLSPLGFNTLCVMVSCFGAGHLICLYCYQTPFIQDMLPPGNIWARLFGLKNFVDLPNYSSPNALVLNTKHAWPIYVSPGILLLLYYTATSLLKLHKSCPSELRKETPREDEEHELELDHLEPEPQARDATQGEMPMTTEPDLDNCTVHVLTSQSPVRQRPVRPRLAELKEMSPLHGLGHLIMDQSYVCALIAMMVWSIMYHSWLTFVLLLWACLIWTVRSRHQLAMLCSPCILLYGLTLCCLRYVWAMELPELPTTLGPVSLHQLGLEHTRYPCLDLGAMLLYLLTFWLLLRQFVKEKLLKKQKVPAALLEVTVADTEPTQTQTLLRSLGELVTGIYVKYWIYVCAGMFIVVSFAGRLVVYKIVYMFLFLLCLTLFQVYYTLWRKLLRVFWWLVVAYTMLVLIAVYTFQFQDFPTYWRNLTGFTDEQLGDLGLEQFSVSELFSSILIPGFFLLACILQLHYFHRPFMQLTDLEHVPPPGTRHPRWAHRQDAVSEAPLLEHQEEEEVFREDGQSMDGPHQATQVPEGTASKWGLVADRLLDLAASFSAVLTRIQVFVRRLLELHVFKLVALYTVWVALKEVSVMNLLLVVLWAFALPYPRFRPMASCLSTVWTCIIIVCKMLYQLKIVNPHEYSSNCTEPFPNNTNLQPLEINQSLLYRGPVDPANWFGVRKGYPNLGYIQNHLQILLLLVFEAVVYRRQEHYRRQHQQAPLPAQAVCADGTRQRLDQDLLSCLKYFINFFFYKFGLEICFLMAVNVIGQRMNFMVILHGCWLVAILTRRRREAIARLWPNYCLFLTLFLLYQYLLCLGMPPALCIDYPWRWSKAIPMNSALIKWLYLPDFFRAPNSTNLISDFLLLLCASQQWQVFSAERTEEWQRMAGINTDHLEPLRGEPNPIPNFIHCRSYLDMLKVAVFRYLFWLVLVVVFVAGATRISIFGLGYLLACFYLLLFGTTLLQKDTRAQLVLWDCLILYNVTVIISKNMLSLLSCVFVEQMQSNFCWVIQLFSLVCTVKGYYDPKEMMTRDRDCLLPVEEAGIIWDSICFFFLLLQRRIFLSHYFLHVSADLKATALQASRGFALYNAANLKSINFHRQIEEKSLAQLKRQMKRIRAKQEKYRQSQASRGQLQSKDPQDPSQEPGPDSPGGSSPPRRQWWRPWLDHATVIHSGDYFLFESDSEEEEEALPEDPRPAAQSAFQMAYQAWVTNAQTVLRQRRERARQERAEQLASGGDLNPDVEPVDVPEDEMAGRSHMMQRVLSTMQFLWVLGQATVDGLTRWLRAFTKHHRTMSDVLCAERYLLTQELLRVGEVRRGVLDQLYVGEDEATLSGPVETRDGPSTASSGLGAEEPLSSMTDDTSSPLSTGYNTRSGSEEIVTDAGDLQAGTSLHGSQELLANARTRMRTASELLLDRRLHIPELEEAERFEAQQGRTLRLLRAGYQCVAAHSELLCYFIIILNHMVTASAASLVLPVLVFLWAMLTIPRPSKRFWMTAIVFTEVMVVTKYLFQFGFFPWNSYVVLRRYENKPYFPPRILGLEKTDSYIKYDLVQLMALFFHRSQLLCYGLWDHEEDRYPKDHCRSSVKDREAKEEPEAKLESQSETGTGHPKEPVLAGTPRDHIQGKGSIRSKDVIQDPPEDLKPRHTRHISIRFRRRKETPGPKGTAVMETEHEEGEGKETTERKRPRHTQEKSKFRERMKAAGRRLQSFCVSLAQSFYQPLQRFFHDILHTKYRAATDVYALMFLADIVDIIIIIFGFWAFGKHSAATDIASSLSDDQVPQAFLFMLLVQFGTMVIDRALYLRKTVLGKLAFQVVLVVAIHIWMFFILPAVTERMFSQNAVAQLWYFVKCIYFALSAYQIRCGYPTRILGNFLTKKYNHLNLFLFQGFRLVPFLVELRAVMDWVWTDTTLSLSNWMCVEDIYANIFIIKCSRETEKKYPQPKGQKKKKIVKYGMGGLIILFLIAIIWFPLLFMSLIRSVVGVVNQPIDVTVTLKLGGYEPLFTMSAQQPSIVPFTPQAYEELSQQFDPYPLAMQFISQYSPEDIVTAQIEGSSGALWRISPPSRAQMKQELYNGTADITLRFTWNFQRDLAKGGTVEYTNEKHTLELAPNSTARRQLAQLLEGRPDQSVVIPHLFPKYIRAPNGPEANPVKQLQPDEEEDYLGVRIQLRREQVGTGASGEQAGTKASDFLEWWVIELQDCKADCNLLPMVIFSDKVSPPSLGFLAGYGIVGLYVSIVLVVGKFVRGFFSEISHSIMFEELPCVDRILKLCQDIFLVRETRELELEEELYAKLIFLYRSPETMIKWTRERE"}
{"substance": "GsMTx-4 (from UniProt Q7YT39)", "values": [{"measurement": "Kd", "value": 2, "unit": "µM"}]}
